Data on one molecule can be found in doi:10.1101/2021.04.07.438830 (bioRxiv, 2021).

The target in the experiment is T1, GST-KPC2 (UniProt Q9BSL1 1-405).
T1 sequence: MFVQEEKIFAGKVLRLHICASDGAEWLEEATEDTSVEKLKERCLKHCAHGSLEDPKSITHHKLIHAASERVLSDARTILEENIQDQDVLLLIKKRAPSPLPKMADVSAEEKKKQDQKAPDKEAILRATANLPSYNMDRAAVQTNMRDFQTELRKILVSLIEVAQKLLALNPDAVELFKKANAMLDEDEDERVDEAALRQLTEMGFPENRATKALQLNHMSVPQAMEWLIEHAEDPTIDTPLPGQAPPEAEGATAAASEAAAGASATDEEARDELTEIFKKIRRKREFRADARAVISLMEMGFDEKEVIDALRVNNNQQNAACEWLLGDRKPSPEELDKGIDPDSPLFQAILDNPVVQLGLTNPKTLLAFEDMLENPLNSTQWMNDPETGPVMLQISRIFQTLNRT
The experiment can be described thus: pull-down.

B1: GST-p65 (1-307) (domain or fragment)
chain: MDELFPLIFPAEPAQASGPYVEIIEQPKQRGMRFRYKCEGRSAGSIPGERSTDTTKTHPTIKINGYTGPGTVRISLVTKDPPHRPHPHELVGKDCRDGFYEAELCPDRCIHSFQNLGIQCVKKRDLEQAISQRIQTNNNPFQVPIEEQRGDYDLNAVRLCFQVTVRDPSGRPLRLPPVLSHPIFDNRAPNTAELKICRVNRNSGSCLGGDEIFLLCDKVQKEDIEVYFTGPGWEARGSFSQADVHRQVAIVFRTPPYADPSLQAPVRVSMQLRRPSDRELSEPMEFQYLPDTDDRHRIEEKRKRTYE
B1: the binding result is “binds”.
